Source: patent publication US20220112288A1

How the values were obtained:
[1] = target: human CD4 on cells (SKW3 cells; human PBMCs) (human) (UniProt P01730); experiment: SKW3 FACS binning, OKT4-A488 on SKW3 cells without competing supernatant (background 2163)
[2] = target: human CD4 on cells (SKW3 cells; human PBMCs) (human) (UniProt P01730); experiment: SKW3 FACS binning, OKT4a on SKW3 cells, anti-hu A647 secondary, without competing supernatant (background 5000)
[3] = target: human CD4 on cells (SKW3 cells; human PBMCs) (human) (UniProt P01730); experiment: SKW3 FACS binning, RPA-T4-PE-Dazzle 594 on SKW3 cells without competing supernatant (background 783)

Substance: Mouse anti-human CD4 (OKT4), Alexa Fluor 488 conjugated (antibody)
- Max Binding [1]: 8200

Substance: Human anti-human CD4 (OKT4a) (antibody)
- Max Binding [2]: 35000

Substance: Mouse anti-human CD4 (RPA-T4), PE-Dazzle 594 conjugated (antibody)
- Max Binding [3]: 15000
